# From PMC10435522, “Molecular insights into recognition of GUCY2C by T-cell engaging bispecific antibody anti-GUCY2CxCD3” (Scientific Reports, 2023)
# T1: GUCY2C ECD peptide 19 (68-NSGDCRSSTCEGLDLLRKIS-87) (human)
# T1 construct: human GUCY2C residues 68-87; numbers count on: the mature protein (91-110 of P25092); In the crystal the peptide holds the disulfide bond Cys72-Cys77; also called GUCY2C-peptide; 68GUCY2C-peptide87; source: synthetic peptide (New England Peptide arrays for the DELFIA; chemically synthesized for the crystal)
# T1 chain: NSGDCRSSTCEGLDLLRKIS
# B1: GUCY2C-1608 (IgG version of PF-07062119) (antibody, V domains shown)
# VH: EVQLVESGGGLVQPGGSLRLSCAASGFTFSSYWMHWVRQAPGKGLEWIGEIKPSNELTNVHEKFKDRFTISVDKAKNSAYLQMNSLRAEDTAVYYCTRTITTTEGYWFFDVWGQGTLVTVSS
# VL: DIQLTQSPSSLSASVGDRVTITCRASESVDYYGSSLLQWYQQKPGKAPKLLIYAASKLASGVPSRFSGSGSGTDFTLTISSLQPEDFATYYCQQTRKAYTFGQGTKLEIK
# notes: as the VH in aGUCY2C-scFv; as the VL in aGUCY2C-scFv; IgG detected with an anti-human IgG secondary antibody; also called GUGY2C-1608; Ab GUCY2C-1608
# B2: anti-GUCY2C single chain Fv (aGUCY2C-scFv) fragment of PF-07062119 (scFv, V domains shown)
# VH: B1 VH
# VL: B1 VL
# notes: Fc removed with AcTEV protease; also called anti-GUCY2C-scFv; source: Expi293F, transfected (with kifunensine), purified (MAb Select Sure, Superdex 200 SEC, TEV cleavage); not shown: Fc, C-terminal, cleaved
# Legend:
# [1] = target: PF-07062119, anti-GUCY2CxCD3 bispecific antibody; test: flow cytometry of yeast-displayed GUCY2C ECD; conditions: 2 independent experiments, triplicate samples, read off a plot
# [2] = target: T2, human GUCY2C ECD, purified (from HuGUCY2C_ECD_TEV_muIgG2amutFc_Flag) (human, UniProt P25092); test: ELISA; DELFIA competition ELISA; human GUCY2C ECD coated at 1 ug/ml; GUCY2C-1608 at EC80 mixed with peptide 19 serially diluted 1:3 from 10 ug/ml; anti-human IgG europium detection; conditions: both partners purified
# T2 construct: human GUCY2C extracellular domain, residues 1-407; numbers count on: the mature protein (24-430 of P25092); For the crystal the complex with the scFv was treated with endoglycosidase H. The limits 1-407 are stated for the crystallised ECD; also called full GUCY2C ECD; full length GUCY2C-ECD; source: Expi293F, transfected (with kifunensine), purified (MAb Select Sure, Superdex 200 SEC, TEV …)
# [3] = target: T1, GUCY2C ECD peptide 19 …; test: as above; conditions: both partners purified
# [4] = target: T2, human GUCY2C ECD, purified (from …); test: crystal structure; aGUCY2C-scFv with GUCY2C-ECD (1-407), mixed at 1.2:1, treated with endoglycosidase H, purified by SEC; 3.52 A; one complex in the asymmetric unit; conditions: both partners purified
# [5] = target: T1, GUCY2C ECD peptide 19 …; test: crystal structure; aGUCY2C-scFv with GUCY2C-peptide 68-87, complex formed at 1:1.2 molar ratio; 1.6 A; two complexes in the asymmetric unit; conditions: both partners purified
# T2 sequence (P25092 24-407): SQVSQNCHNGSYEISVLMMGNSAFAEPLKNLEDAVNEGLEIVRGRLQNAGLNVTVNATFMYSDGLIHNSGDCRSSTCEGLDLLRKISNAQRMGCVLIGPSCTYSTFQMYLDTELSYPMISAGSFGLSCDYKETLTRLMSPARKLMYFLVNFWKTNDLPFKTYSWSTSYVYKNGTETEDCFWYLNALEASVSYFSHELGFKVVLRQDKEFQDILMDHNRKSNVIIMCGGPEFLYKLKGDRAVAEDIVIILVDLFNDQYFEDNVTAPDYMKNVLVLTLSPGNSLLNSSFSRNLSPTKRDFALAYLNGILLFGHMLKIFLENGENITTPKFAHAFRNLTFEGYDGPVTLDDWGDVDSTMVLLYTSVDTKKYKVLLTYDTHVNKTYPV
Molecule,response ([1]; parent: est. 130),response ([1]; parent: est. 36),also measured
chicken GUCY2C ECD displayed on yeast (CID1818) (from UniProt E1BZE2) chicken residues 70-84 replaced by human 73-87,,,response [1]: 11
chicken GUCY2C ECD displayed on yeast (CID1818) (from UniProt E1BZE2) chicken residues 71-89 replaced by human 74-92,,,response [1]: 14
human GUCY2C ECD displayed on yeast (CID1814) (from UniProt P25092) A331E; L335I,110,,
human GUCY2C ECD displayed on yeast (CID1814) (from UniProt P25092) D81E,,33,
human GUCY2C ECD displayed on yeast (CID1814) (from UniProt P25092) I66L,,34,
human GUCY2C ECD displayed on yeast (CID1814) (from UniProt P25092) K85Q,,50,
human GUCY2C ECD displayed on yeast (CID1814) (from UniProt P25092) L83I,,28,
human GUCY2C ECD displayed on yeast (CID1814) (from UniProt P25092) N21D; A23D; D71G,43,,
human GUCY2C ECD displayed on yeast (CID1814) (from UniProt P25092) Q210R; E230A; D238T; E259R,220,,
human GUCY2C ECD displayed on yeast (CID1814) (from UniProt P25092) R84K,,48,
human GUCY2C ECD displayed on yeast (CID1814) (from UniProt P25092) S15N,,21,
human GUCY2C ECD displayed on yeast (CID1814) (from UniProt P25092) S62F,,30,
human GUCY2C ECD displayed on yeast (CID1814) (from UniProt P25092) S74T,,41,
human GUCY2C ECD displayed on yeast (CID1814) (from UniProt P25092) S87F,,32,
human GUCY2C ECD displayed on yeast (CID1814) (from UniProt P25092) S163T; G403S,96,,
human GUCY2C ECD displayed on yeast (CID1814) (from UniProt P25092) Y109V; T133N,97,,
human GUCY2C ECD displayed on yeast (CID1814) (from UniProt P25092) human 153-166 substituted with chicken residues 151-164,37,,
human GUCY2C ECD displayed on yeast (CID1814) (from UniProt P25092) human 172-178 substituted with chicken residues 170-176,140,,
human GUCY2C ECD displayed on yeast (CID1814) (from UniProt P25092) human 198-206 substituted with chicken residues 196-204,160,,
human GUCY2C ECD displayed on yeast (CID1814) (from UniProt P25092) human 207-217 substituted with chicken residues 205-215,150,,
human GUCY2C ECD displayed on yeast (CID1814) (from UniProt P25092) human 238-243 substituted with chicken residues 236-241,110,,
human GUCY2C ECD displayed on yeast (CID1814) (from UniProt P25092) human 259-269 substituted with chicken residues 257-267,80,,
human GUCY2C ECD displayed on yeast (CID1814) (from UniProt P25092) human 363-376 substituted with chicken residues 361-374,65,,
B1,,,binding result [2]: binds; binding result [3]: binds
B2,,,binding result [4]: binds; binding result [5]: binds
